We go through two molecules from patent US20230104578A1 (ADRENOMED, published 2023).

Where two headings read alike, the source gives them in different places. Ends that are not written are not given here.

For assay [1], the target named is T1, human recombinant adrenomedullin receptor (CRLR+RAMP3) (human). Kind of assay: cell-based or functional assay.
The target of assay [2] is T1, human recombinant adrenomedullin …. Kind of assay: cell-based or functional assay. The source holds these as a separate data set.

T1 sequence (Q16602 whole entry, chain 1 of 2): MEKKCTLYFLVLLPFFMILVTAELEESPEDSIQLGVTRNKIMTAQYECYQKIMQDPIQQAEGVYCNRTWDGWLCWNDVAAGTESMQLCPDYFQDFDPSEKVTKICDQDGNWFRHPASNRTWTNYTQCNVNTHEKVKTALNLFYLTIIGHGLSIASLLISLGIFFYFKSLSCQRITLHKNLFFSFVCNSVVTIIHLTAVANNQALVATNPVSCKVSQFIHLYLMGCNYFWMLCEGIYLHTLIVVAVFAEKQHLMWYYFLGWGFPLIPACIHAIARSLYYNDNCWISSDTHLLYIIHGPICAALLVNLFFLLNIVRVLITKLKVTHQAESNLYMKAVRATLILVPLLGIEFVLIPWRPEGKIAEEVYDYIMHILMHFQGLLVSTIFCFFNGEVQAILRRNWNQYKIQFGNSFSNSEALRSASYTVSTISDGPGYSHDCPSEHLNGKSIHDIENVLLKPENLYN
T1 sequence (O60896 whole entry, chain 2 of 2, further chain): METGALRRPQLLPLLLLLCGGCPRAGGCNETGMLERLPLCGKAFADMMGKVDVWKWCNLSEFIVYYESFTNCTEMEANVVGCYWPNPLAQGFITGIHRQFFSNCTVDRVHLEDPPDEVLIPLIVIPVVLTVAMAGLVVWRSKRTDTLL

B1: mature human Adrenomedullin (amino acids 1-52) (peptide)
peptide: YRQSMNNFQGLRSFGCRFGTCTVQKLAHQIYQFTDKDKDNVAPRSKISPQGY-NH2
modifications: ends and bridges not checked
B1: in assay [1], the “EC50 (read off the curve); cAMP (HTRF), % activation” value was about 1 nM.

As for YRQSMNQGSRSNGCRFGTCTFQKLAHQIYQLTDKDKDGMAPRNKISPQGY-NH2 (ends and bridges not checked) [Murine ADM 1-50], the “EC50 (read off the curve); cAMP (HTRF), % activation” value in assay [2] was about 0.08 nM.
